The values that follow come from patent US20190015361A1 (Maxwell Biosciences, Inc., priority 2017, published 2019).

For this assay, the system named is Aβ40 (t=0 days), Aβ42 (t=0 days), Aβ42 (t=24 days). The assay is described as follows: SPRi interaction with the three immobilized Aβ forms. The assay is classed as binding, human. To be noted: analyte flowed onto the SPRi chip for 10 minutes, all three Aβ forms.
Chain of Aβ40 (t=0 days), Aβ42 (t=0 days), Aβ42 (t=24 days) (P05067 672-711 limits assumed): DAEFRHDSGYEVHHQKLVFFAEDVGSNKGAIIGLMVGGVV

B1: ovalbumin: non-correlated protein used as negative control sample in SPRi (Sigma-Aldrich, A5503) (protein)
chain: GSIGAASMEFCFDVFKELKVHHANENIFYCPIAIMSALAMVYLGAKDSTRTQINKVVRFDKLPGFGDSIEAQCGTSVNVHSSLRDILNQITKPNDVYSFSLASRLYAEERYPILPEYLQCVKELYRGGLEPINFQTAADQARELINSWVESQTNGIIRNVLQPSSVDSQTAMVLVNAIVFKGLWEKAFKDEDTQAMPFRVTEQESKPVQMMYQIGLFRVASMASEKMKILELPFASGTMSMLVLLPDEVSGLEQLESIINFEKLTEWTSSNVMEERKIKVYLPRMKMEEKYNLTSVLMAMGITDVFSSSANLSGISSAESLKISQAVHAAHAEINEAGREVVGSAEAGVDAASVSEEFRADHPFLFCIKHIATNAVLFFGRCVSP
Consider B1, for which the SPRi interaction signal result was “did not produce interaction signals”.
